Source: patent US20260035462A1 (Hoffmann-La Roche, published 2026)

Legend:
[1] = target: T1, human CD3 on Jurkat NFAT reporter T cells (human, UniProt P07766 23-207); assay: flow cytometry on Jurkat NFAT reporter T cells (human CD3), 1:4 titration from 50 nM, FITC anti-human IgG Fcγ secondary antibody, median fluorescence; sample not treated with Matriptase
T1 construct: whole, on cells; also called CD3 on Jurkat T cells
Procedure: (§1) Jurkat-NFAT reporter cells (GloResponse Jurkat NFAT-RE-luc2P; Promega #CS176501) are a human acute lymphatic leukemia reporter cell line with a NFAT promoter, expressing human CD3. The cells were cultured in RPMI1640, 2 g/l glucose, 2 g/l NaHCO₃, 10% FBS, 25 mM HEPES, 2 mM L-glutamin, 1×NEAA, 1× sodium-pyruvate at 0.1-0.5 mio cells per ml.
(§2) The next day, Jurkat cells were harvested and transferred into a 96 well round bottom plate (100,000 cells per well). […] After the staining, the cells were washed twice with FACS buffer to remove unbound molecules. […] After 30 minutes incubation at 4° C. the cells were washed twice with FACS buffer to remove unbound antibodies. Finally, the cells were resuspended in 100 μl FACS buffer and analyzed by flow cytometry using BD Canto II.

[2] = target: T2, Trop2 on human cancer cell lines (T-47D, HPAF II, HeLa NLR, OVMANA) (human, UniProt P09758 27-323); assay: flow cytometry on HeLa ST14 cells, FITC anti-human IgG Fcγ secondary antibody, median fluorescence
T2 construct: whole, on cells; also called Tumor-associated calcium signal transducer 2
T2 sequence (looked up): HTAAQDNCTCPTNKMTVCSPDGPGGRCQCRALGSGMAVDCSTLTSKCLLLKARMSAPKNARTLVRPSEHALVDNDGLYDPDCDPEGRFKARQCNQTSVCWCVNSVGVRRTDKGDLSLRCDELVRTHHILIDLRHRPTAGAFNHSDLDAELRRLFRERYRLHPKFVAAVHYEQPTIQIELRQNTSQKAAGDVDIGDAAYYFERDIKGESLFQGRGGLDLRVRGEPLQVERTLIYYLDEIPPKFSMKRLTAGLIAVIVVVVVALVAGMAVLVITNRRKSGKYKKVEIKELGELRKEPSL
Procedure: (§3) Target cells were harvested and transferred into a 96 well round bottom plate (100,000 cells per well). […] After the staining, the cells were washed twice with FACS buffer to remove unbound molecules. […] After 30 minutes incubation at 4° C. the cells were washed twice with FACS buffer to remove unbound antibodies. Finally, the cells were resuspended in 100 μl FACS buffer and analyzed by flow cytometry using BD Canto II.

[3] = target: T2, Trop2 on human cancer cell lines …; assay: flow cytometry on T-47D cells, FITC anti-human IgG Fcγ secondary antibody, median fluorescence
Procedure: as §3

[4] = target: T1, human CD3 on Jurkat NFAT reporter T …; assay: flow cytometry on Jurkat NFAT reporter T cells (human CD3), 1:4 titration from 50 nM, FITC anti-human IgG Fcγ secondary antibody, median fluorescence; sample pre-incubated overnight with Matriptase (+M)
Procedure: as §1, §2

[5] = target: T2, Trop2 on human cancer cell lines …; assay: flow cytometry on OVMANA cells, FITC anti-human IgG Fcγ secondary antibody, median fluorescence
Procedure: as §3

[6] = target: T2, Trop2 on human cancer cell lines …; assay: flow cytometry on HPAF II cells, FITC anti-human IgG Fcγ secondary antibody, median fluorescence
Procedure: as §3

[7] = target: T1, human CD3 on Jurkat NFAT reporter T …; assay: flow cytometry on Jurkat NFAT reporter T cells (human CD3), 1:4 titration from 50 nM, FITC anti-human IgG Fcγ secondary antibody, median fluorescence; sample pre-incubated overnight with Matriptase (+M); remark: listed apart in the source
Procedure: (§4) Jurkat-NFAT reporter cells (GloResponse Jurkat NFAT-RE-luc2P; Promega #CS176501) are a human acute lymphatic leukemia reporter cell line with a NFAT promoter, expressing human CD3. The cells were cultured in RPMI1640, 2 g/l glucose, 2 g/l NaHCO₃, 10% FBS, 25 mM HEPES, 2 mM L-glutamin, 1×NEAA, 1×sodium-pyruvate at 0.1-0.5 mio cells per ml.
(§5) The next day, Jurkat cells were harvested and transferred into a 96 well round bottom plate (100′000 cells per well). […] After the staining, the cells were washed twice with FACS buffer to remove unbound molecules. […] After 30 min incubation at 4° C. the cells were washed twice with FACS buffer to remove unbound antibodies. Finally, the cells were resuspended in a 100 μl FACS buffer and analyzed by flow cytometry using BD Canto II.

[8] = target: T1, human CD3 on Jurkat NFAT reporter T …; assay: flow cytometry on Jurkat NFAT reporter T cells (human CD3), 1:4 titration from 50 nM, FITC anti-human IgG Fcγ secondary antibody, median fluorescence; sample not treated with Matriptase; remark: listed apart in the source
Procedure: as §4, §5

T1 sequence (P07766 23-207): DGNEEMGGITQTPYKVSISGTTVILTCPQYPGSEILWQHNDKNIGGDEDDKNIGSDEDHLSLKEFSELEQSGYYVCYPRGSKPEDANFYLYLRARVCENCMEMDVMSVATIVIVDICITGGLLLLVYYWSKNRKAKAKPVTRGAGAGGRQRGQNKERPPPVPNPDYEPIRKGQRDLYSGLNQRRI

B1: classical Trop2 TCB P1AI0692 (unmasked) (bispecific antibody, human IgG1, lambda, L234A L235A)
heavy 1: DIQMTQSPSSLSASVGDRVTITCKASQDVSIAVAWYQQKPGKAPKVLIYSASYRYTGVPDRFSGSGSGTDFTFTISSLQPEDIAVYYCQQHYITPLTFGGGTKVEIKSSASTKGPSVFPLAPSSKSTSGGTAALGCLVKDYFPEPVTVSWNSGALTSGVHTFPAVLQSSGLYSLSSVVTVPSSSLGTQTYICNVNHKPSNTKVDKKVEPKSCDKTHTCPPCPAPEAAGGPSVFLFPPKPKDTLMISRTPEVTCVVVDVSHEDPEVKFNWYVDGVEVHNAKTKPREEQYNSTYRVVSVLTVLHQDWLNGKEYKCKVSNKALGAPIEKTISKAKGQPREPQVCTLPPSRDELTKNQVSLSCAVKGFYPSDIAVEWESNGQPENNYKTTPPVLDSDGSFFLVSKLTVDKSRWQQGNVFSCSVMHEALHNHYTQKSLSLSPG
heavy 2: not shown
light 1: QAVVTQEPSLTVSPGGTVTLTCGSSTGAVTTSNYANWVQEKPGQAFRGLIGGTNKRAPGTPARFSGSLLGGKAALTLSGAQPEDEAEYYCALWYSNLWVFGGGTKLTVLGQPKAAPSVTLFPPSSKKLQANKATLVCLISDFYPGAVTVAWKADSSPVKAGVETTTPSKQSNNKYAASSYLSLTPEQWKSHRSYSCQVTHEGSTVEKTVAPTECS
light 2: QIQLVQSGHEVKKPGASVKVSCKASGYTFTNYGMNWVRQAPGQGLEWMGWINTKTGEPTYAEEFKGRFVFSLETSASTAYLQISSLKAEDMAMYFCGRGGYGSSYWYFDVWGQGTTVTVSSASVAAPSVFIFPPSDEQLKSGTASVVCLLNNFYPREAKVQWKVDNALQSGNSQESVTEQDSKDSTYSLSSTLTLSKADYEKHKVYACEVTHQGLSSPVTKSFNRGEC
notes: Tested with and without Matriptase pre-treatment; no mask; also called unmasked Trop2 TCB; unmasked classical TCB
EC50 (read off the curve) [1]: ~1 nM | EC50 (read off the curve) [2]: ~1 nM | EC50 (read off the curve) [3]: ~0.9 nM | EC50 (read off the curve) [4]: ~1 nM | EC50 (read off the curve) [5]: ~1 nM | EC50 (read off the curve) [6]: ~1 nM

B2: Matriptase pre-cleaved IGF-1R proTCB (P1AH0943 after overnight incubation with human recombinant Matriptase) (bispecific antibody)
heavy 1: EIVLTQSPATLSLSPGERATLSCRASQSVSSYLAWYQQKPGQAPRLLIYDASKRATGIPARFSGSGSGTDFTLTISSLEPEDFAVYYCQQRSKWPPWTFGQGTKVESKSSASTKGPSVFPLAPSSKSTSGGTAALGCLVKDYFPEPVTVSWNSGALTSGVHTFPAVLQSSGLYSLSSVVTVPSSSLGTQTYICNVNHKPSNTKVDKKVEPKSCDKTHTCPPCPAPEAAGGPSVFLFPPKPKDTLMISRTPEVTCVVVDVSHEDPEVKFNWYVDGVEVHNAKTKPREEQYNSTYRVVSVLTVLHQDWLNGKEYKCKVSNKALGAPIEKTISKAKGQPREPQVCTLPPSRDELTKNQVSLSCAVKGFYPSDIAVEWESNGQPENNYKTTPPVLDSDGSFFLVSKLTVDKSRWQQGNVFSCSVMHEALHNHYTQKSLSLSPG
heavy 2: not shown
light 1: QAVVTQEPSLTVSPGGTVTLTCGSSTGAVTTSNYANWVQEKPGQAFRGLIGGTNKRAPGTPARFSGSLLGGKAALTLSGAQPEDEAEYYCALWYSNLWVFGGGTKLTVLGQPKAAPSVTLFPPSSKKLQANKATLVCLISDFYPGAVTVAWKADSSPVKAGVETTTPSKQSNNKYAASSYLSLTPEQWKSHRSYSCQVTHEGSTVEKTVAPTECS
light 2: QVELVESGGGVVQPGRSQRLSCAASGFTFSSYGMHWVRQAPGKGLEWVAIIWFDGSSTYYADSVRGRFTISRDNSKNTLYLQMNSLRAEDTAVYFCARELGRRYFDLWGRGTLVSVSSASVAAPSVFIFPPSDEQLKSGTASVVCLLNNFYPREAKVQWKVDNALQSGNSQESVTEQDSKDSTYSLSSTLTLSKADYEKHKVYACEVTHQGLSSPVTKSFNRGEC
notes: also called Matriptase pre-cleaved (+M) IGF-1R proTCB
EC50 (read off the curve) [7]: ~0.9 nM

B3: classical IGF-1R TCB P1AH0975 (unmasked) (bispecific antibody, human IgG1, lambda, L234A L235A)
heavy 1: EIVLTQSPATLSLSPGERATLSCRASQSVSSYLAWYQQKPGQAPRLLIYDASKRATGIPARFSGSGSGTDFTLTISSLEPEDFAVYYCQQRSKWPPWTFGQGTKVESKSSASTKGPSVFPLAPSSKSTSGGTAALGCLVKDYFPEPVTVSWNSGALTSGVHTFPAVLQSSGLYSLSSVVTVPSSSLGTQTYICNVNHKPSNTKVDKKVEPKSCDKTHTCPPCPAPEAAGGPSVFLFPPKPKDTLMISRTPEVTCVVVDVSHEDPEVKFNWYVDGVEVHNAKTKPREEQYNSTYRVVSVLTVLHQDWLNGKEYKCKVSNKALGAPIEKTISKAKGQPREPQVCTLPPSRDELTKNQVSLSCAVKGFYPSDIAVEWESNGQPENNYKTTPPVLDSDGSFFLVSKLTVDKSRWQQGNVFSCSVMHEALHNHYTQKSLSLSPG
heavy 2: not shown
light 1: QAVVTQEPSLTVSPGGTVTLTCGSSTGAVTTSNYANWVQEKPGQAFRGLIGGTNKRAPGTPARFSGSLLGGKAALTLSGAQPEDEAEYYCALWYSNLWVFGGGTKLTVLGQPKAAPSVTLFPPSSKKLQANKATLVCLISDFYPGAVTVAWKADSSPVKAGVETTTPSKQSNNKYAASSYLSLTPEQWKSHRSYSCQVTHEGSTVEKTVAPTECS
light 2: QVELVESGGGVVQPGRSQRLSCAASGFTFSSYGMHWVRQAPGKGLEWVAIIWFDGSSTYYADSVRGRFTISRDNSKNTLYLQMNSLRAEDTAVYFCARELGRRYFDLWGRGTLVSVSSASVAAPSVFIFPPSDEQLKSGTASVVCLLNNFYPREAKVQWKVDNALQSGNSQESVTEQDSKDSTYSLSSTLTLSKADYEKHKVYACEVTHQGLSSPVTKSFNRGEC
notes: Tested with and without Matriptase pre-treatment; no mask; also called unmasked classical IGF-1R TCB
EC50 (read off the curve) [8]: ~0.7 nM | EC50 (read off the curve) [7]: ~0.8 nM
